Assay [1] concerns the target T1, recombinant AIMP1/p43 (ARS-interacting multifunctional protein 1) (human, UniProt Q12904 1-312, limits assumed).
T1 construct: Purified recombinant antigen used in SPR, on Luminex beads and as the ELISA standard; It calls the target human AIMP1/p43 in the summary and claims; also called AIMP1/p43 항원; 재조합 AIMP1/p43 표준물질
T1 sequence (looked up): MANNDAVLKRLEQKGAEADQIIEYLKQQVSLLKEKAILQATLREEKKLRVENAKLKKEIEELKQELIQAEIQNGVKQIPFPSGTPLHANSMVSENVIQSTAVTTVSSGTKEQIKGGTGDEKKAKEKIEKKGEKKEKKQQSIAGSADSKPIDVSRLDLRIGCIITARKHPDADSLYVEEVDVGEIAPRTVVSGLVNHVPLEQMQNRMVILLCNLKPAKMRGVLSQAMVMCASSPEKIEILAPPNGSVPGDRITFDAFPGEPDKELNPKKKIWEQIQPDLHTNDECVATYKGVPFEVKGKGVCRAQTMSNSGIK
The experiment in a line: SPR (ProteOn XPR36), AIMP1/p43 amine-coupled on GLC chip, scFv 200-25 nM as analyte, 25°C.

The target in assay [2] is T2, Tryptophanyl-tRNA synthetase (WRS) (UniProt P23381 1-471, limits assumed).
T2 construct: Recombinant antigen, purity above 90%, coupled to a Luminex bead; also called 트립토파닐-tRNA 합성효소
T2 sequence (looked up): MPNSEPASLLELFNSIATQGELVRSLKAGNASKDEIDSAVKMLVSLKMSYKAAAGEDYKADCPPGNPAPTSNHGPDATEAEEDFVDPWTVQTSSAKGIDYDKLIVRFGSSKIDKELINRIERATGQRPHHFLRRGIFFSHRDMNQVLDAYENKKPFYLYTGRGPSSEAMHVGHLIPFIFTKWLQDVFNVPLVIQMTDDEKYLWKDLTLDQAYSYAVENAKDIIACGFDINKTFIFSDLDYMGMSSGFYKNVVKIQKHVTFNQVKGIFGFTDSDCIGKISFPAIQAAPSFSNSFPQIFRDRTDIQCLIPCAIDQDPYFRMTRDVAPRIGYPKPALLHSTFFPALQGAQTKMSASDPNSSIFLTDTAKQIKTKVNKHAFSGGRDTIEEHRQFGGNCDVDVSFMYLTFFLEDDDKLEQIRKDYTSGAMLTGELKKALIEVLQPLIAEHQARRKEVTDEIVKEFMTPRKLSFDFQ
The experiment in a line: Luminex multiplex bead assay, antigen-coupled beads, anti-HA-biotin and SA-PE detection.

The target in assay [3] is T3, Glycyl-tRNA synthetase (GRS) (UniProt P41250 55-739, limits assumed).
T3 construct: Recombinant antigen, purity above 90%, coupled to a Luminex bead; also called 글리실-tRNA 합성효소
T3 sequence (looked up): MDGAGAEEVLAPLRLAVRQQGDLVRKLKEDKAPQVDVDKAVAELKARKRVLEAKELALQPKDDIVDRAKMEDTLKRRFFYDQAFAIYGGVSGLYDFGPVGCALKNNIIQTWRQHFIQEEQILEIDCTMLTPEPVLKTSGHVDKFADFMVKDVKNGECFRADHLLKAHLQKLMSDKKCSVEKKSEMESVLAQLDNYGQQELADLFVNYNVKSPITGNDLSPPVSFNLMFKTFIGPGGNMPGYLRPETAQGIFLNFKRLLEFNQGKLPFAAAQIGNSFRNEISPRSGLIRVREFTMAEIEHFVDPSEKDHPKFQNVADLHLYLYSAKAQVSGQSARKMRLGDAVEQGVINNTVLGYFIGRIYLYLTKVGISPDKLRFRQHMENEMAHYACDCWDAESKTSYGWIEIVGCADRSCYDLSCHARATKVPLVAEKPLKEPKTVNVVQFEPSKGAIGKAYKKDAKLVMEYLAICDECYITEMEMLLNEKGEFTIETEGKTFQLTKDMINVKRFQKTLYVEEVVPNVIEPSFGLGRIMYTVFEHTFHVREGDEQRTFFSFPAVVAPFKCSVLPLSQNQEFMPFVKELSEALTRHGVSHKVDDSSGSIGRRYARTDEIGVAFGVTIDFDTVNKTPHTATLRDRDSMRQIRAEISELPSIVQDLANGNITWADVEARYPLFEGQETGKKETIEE
Described as above.

Assay [4] deals with T4, Seryl-tRNA synthetase (SRS) (UniProt P49591 1-514, limits assumed).
T4 construct: Recombinant antigen, purity above 90%, coupled to a Luminex bead; also called 세릴-tRNA 합성효소
The assay is described as above.

In assay [5] the target is T5, Lysyl-tRNA synthetase (KRS) (UniProt Q15046 1-597, limits assumed).
T5 construct: Recombinant antigen, purity above 90%, coupled to a Luminex bead; also called 리실-tRNA 합성효소
The assay is described as above.

Assay [6] deals with T6, Asparaginyl-tRNA synthetase (NRS) (UniProt O43776 1-548, limits assumed).
T6 construct: Recombinant antigen, purity above 90%, coupled to a Luminex bead; also called 아스파라기닐딜-tRNA 합성효소
T6 sequence (looked up): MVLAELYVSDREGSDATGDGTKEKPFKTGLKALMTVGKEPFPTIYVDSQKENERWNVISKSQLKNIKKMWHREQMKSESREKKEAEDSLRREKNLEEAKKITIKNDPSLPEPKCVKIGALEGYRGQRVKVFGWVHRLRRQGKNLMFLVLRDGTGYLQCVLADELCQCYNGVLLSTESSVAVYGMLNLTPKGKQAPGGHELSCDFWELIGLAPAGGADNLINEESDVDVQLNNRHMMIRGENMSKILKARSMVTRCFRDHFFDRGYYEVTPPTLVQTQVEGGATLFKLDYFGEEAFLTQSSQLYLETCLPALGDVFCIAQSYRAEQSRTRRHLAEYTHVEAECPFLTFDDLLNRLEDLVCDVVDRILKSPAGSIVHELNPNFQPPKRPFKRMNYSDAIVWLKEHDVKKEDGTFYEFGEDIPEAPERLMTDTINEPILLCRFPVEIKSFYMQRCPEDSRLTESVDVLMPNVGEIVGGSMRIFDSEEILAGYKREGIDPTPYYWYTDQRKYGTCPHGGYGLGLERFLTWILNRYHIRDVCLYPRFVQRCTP
The assay is described as above.

Assay [7] addresses T7, Tyrosyl-tRNA synthetase (YRS) (UniProt P54577 1-528, limits assumed).
T7 construct: Recombinant antigen, purity above 90%, coupled to a Luminex bead; also called 타이로실-tRNA 합성효소
T7 sequence (looked up): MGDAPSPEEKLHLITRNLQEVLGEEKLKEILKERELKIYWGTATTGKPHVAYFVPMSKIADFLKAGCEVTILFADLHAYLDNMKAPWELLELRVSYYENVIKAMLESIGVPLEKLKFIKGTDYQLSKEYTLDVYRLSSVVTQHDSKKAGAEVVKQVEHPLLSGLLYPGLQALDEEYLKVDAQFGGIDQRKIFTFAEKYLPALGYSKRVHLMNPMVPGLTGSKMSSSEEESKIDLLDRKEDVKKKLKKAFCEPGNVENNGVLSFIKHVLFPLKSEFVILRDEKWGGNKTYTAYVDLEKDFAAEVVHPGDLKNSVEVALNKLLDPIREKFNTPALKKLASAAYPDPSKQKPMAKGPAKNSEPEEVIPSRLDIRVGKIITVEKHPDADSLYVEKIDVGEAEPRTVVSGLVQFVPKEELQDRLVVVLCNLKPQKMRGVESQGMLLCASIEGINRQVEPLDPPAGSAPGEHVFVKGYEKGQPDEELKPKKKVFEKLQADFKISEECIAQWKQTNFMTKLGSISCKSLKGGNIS
Described as above.

Assay [8] addresses T8, Histidyl-tRNA synthetase (HRS) (UniProt P12081 1-509, limits assumed).
T8 construct: Recombinant antigen, purity above 90%, coupled to a Luminex bead; also called 히스티딜-tRNA 합성효소
T8 sequence (looked up): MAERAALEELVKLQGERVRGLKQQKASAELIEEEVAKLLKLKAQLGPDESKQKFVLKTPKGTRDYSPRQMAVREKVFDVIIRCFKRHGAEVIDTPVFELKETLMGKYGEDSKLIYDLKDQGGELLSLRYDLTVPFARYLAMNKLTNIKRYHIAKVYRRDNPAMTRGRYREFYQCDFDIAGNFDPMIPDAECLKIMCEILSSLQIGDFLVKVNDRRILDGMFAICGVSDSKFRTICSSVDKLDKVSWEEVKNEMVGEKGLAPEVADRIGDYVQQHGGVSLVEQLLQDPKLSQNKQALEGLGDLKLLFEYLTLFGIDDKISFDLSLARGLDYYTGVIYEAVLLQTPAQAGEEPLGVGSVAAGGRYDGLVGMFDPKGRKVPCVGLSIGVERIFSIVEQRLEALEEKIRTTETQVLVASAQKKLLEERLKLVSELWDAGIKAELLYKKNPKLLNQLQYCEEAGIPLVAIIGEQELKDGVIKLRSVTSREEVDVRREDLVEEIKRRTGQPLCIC
Described as above.

The target of assay [9] is T9, AIMP1/p43 natively expressed in human cells (HeLa cell lysate) (human, UniProt Q12904 2-312, limits assumed).
T9 construct: Endogenous protein, denatured on a western blot; also called human 세포에서 원래 발현된 AIMP1/p43
T9 sequence (looked up): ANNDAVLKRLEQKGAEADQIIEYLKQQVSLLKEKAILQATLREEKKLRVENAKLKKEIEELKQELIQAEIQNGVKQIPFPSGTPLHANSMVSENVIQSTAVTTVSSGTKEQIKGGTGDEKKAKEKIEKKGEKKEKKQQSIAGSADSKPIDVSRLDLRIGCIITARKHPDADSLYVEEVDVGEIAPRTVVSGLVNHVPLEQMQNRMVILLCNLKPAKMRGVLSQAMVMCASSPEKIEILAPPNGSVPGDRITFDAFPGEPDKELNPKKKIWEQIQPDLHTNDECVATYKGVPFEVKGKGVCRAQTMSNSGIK
The experiment in a line: western blot on HeLa cell lysate, periplasmic scFv, anti-HA-HRP detection. On the technique in general: A western blot detects proteins with antibodies after separation by electrophoresis.

T5 sequence (Q15046 whole entry): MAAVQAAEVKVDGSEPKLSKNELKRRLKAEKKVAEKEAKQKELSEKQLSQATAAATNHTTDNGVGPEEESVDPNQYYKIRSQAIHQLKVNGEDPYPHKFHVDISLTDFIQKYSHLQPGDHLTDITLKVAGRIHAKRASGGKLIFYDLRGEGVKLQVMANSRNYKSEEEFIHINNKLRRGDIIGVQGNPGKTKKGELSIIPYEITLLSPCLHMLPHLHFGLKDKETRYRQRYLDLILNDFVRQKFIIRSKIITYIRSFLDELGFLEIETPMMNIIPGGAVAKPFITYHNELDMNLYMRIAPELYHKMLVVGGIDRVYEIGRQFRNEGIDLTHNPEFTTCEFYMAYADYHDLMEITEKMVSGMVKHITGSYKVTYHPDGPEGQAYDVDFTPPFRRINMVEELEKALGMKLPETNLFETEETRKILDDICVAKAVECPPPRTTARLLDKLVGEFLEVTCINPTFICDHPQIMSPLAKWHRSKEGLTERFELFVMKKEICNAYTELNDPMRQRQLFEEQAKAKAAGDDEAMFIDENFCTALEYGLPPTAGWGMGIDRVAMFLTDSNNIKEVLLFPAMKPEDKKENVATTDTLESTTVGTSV
T4 sequence (P49591 whole entry): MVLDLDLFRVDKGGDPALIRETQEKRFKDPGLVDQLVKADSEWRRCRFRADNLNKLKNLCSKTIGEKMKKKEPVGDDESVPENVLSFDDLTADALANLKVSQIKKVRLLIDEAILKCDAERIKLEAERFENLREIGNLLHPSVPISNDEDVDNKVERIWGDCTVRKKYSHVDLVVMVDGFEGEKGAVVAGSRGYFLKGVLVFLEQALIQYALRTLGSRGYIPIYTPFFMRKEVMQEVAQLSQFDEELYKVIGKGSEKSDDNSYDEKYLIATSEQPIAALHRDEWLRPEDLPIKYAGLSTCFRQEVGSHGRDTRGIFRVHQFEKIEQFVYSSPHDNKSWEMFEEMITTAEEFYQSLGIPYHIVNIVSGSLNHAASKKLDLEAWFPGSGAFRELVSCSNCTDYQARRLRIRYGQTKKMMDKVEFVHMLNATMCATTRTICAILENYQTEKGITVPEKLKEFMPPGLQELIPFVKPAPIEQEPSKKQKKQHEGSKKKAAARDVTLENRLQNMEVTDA

B1: anti-AIMP1/p43 scFv Biocon-AM1-1 (scFv)
scFv: EVQLLEFLGEGLVQPGGSLRLSCAASGFTFSSYDMSWVRQAPGKGLEWVSVISSDGGSTYYADSVRGRFTISRDNSKNTLYLQMNSLRAEDTAVYYCAKDVMKTGTLVFDYWGQGTLVTVSSGGGGSGGGGSGGGGSQSVLTQPPSASGTPGQRVTISCSGSSSNIGSNDVSWYQQLPGTAPKLLIYADSKRPSGVPDRFSGSKSGTSASLAISGLRSEDEADYYCGSWDDSLSGYVFGGGTKLTVL
notes: Expressed from pComb3X in the E. coli periplasm; also called antibody i)
For the molecule B1, the binding result was “binds” in assay [1]; “no binding” in [2]; “no binding” in assay [3]; “no binding” in assay [4]; “no binding” in [5]; “no binding” in assay [6]. The binding result in assay [7] was “no binding”; in assay [8], “no binding”; in assay [9], “binds”.

B2: anti-AIMP1/p43 scFv Biocon-AM1-2 (scFv)
scFv: EVQLLESGGGLVQPGGSLRLSCAASGFTFSNYDMSWVRQAPGKGLEWVSSIYPNGSSKYYADSVKGRFTISRDNSKNTLYLQMNSLRAEDTAVYYCARDVLLCISMRCYYADGMDVWGQGTLVTVSSGGGGSGGGGSGGGGSQSVLTQPPSASGTPGQRVTISCSGSSSNIGNNAVNWYQQLPGTAPKLLIYANSHRPSGVPDRFSGSQSGTSASLAISGLRSEDEADYYCGSWDSSLNGYVFGGGTKLTVL
notes: Expressed from pComb3X in the E. coli periplasm; also called antibody ii)
As for B2, the binding result was “binds” in assay [1]; “no binding” in assay [2]; “no binding” in assay [3]; “no binding” in [4]; “no binding” in [5]; “no binding” in assay [6]. In addition, the binding result is “no binding” in [7], “no binding” in [8] and “binds” in assay [9].

The values above are taken from patent KR20150078472A (dated 2015).
